“Also recorded” adds a separate entry of the source.
Key:
[1] = tested on: inflammatory mediators in the gingiva of aged mice; test: qPCR of gingival mRNA in aged mice after local administration of soluble Del-1; assay type: in vivo, C57BL/6 mice; settings: 12 h
Experimental: (§1) Ten 18-month-old C57BL/6 mice were microinjected in the gingiva with soluble recombinant mouse Del-1 (kindly provided by Valentis, Inc.)^4 and another ten mice with BSA control. Specifically, Del-1 or BSA (1 μg in 1-μl volume) were microinjected through a 28.5-gauge MicroFine needle (BD) into the palatal gingiva between the first and the second molar teeth, on both sides of the maxilla. Half of the Del-1 or BSAtreated mice were additionally orally inoculated with P. gingivalis ATCC 33277 (10^9 CFU) in 2% carboxymethylcellulose vehicle and the other half were orally given vehicle alone. All mice were sacrificed 12 h later. Maxillae were harvested and one side was stored in 4% paraformaldehyde for immunohistochemistry (see below), while the other side was used to dissect interdental gingiva which were placed into RNAlater solution (Ambion) for qPCR (see below). To determine whether IL-17 regulates Del-1 expression, a neutralizing anti-IL-17A mAb (clone M210, rat IgG2a; kindly provided by Amgen) was microinjected into the palatal gingiva (1 μg) as described above. Purified azide-free rat IgG2a (Biolegend) served as control. qPCR was used to determine […] in dissected gingiva.
Total RNA was extracted from excised gingival tissue or cultured cells using the PerfectPure RNA cell kit (5 Prime, Fisher) and quantified by spectrometry at 260 and 280 nm. The RNA was reverse-transcribed using the High-Capacity cDNA Archive kit (Applied Biosystems) and qPCR with cDNA was performed using the ABI 7500 Fast System, according to the manufacturer's protocol (Applied Biosystems). TaqMan probes, sense primers, and antisense primers for qPCR of genes investigated in this paper were purchased from Applied Biosystems.

[2] = tested on: periodontal inflammation in old mice; test: Immunohistochemistry of interdental gingiva of old mice microinjected with Del-1 or BSA; assay type: in vivo, C57BL/6 mice
Experimental: FIG. 24. Del-1 inhibits IL-17 and periodontal inflammation in old mice. Eighteen-month-old C57BL/6 mice were microinjected in the gingiva with BSA (control) or Del-1, as indicated. In addition, the mice were orally administered P. gingivalis in 2% carboxymethylcellulose vehicle (a, b, c; lower rows) or vehicle control (a, b, c; upper rows) and were sacrificed 12 h later. Sagittal sections of interdental gingiva were stained for the neutrophil marker Ly6G (a), IL-17A (b), or TNF (c). Shown are typical fluorescent confocal images (left) and their overlays with corresponding DIC images (right). (d) The fluorescence intensities of these and additional representative images from independent mice were quantified using ImageJ analysis; data were expressed as % intensity of the Del-1-treated groups relative to the BSA-treated controls, the value of which was set to 100% (dashed line). ‘Induced inflammation’ refers to the groups inoculated with P. gingivalis. Data are means±SD (n=5 mice per group) from one of two independent experiments yielding similar results. **P<0.01 compared to BSA-treated controls.
as §1
Maxillae with intact surrounding tissue were fixed in 4% paraformaldehyde, decalcified in Immunocal solution (Decal) for 15 days, and embedded in OCT compound. Serial mesio-distal sections (7- to 8-μm thick) parallel to the long axis of the teeth (sagittal) were stained with monoclonal antibodies to mouse Ly6G (RB6-8C5, FITC-conjugate; LifeSpan BioSciences), mouse CD4 (GK1.5, FITC- or PE-conjugate; LifeSpan), mouse γδ T-cell receptor (GL3, FITC-conjugate; LifeSpan Biosciences) or with polyclonal antibodies to human/mouse Del-1 (ProteinTech), human/mouse IL-17A (Santa Cruz Biotech), human/mouse TNF (Abcam), human/mouse RANKL (Santa Cruz), and mouse CD31 (LifeSpan). Where necessary, staining involved the use of a secondary reagent (AlexaFluor594-conjugated goat anti-rabbit IgG; Molecular Probes). The specificity of staining was confirmed by using appropriate FITC-conjugated isotype controls or normal rabbit IgG followed by AlexaFluor594-goat anti-rabbit IgG. Images were captured using a laser-scanning confocal microscope (Olympus FV1000). Fluorescence intensity was quantified using the Image J software (NIH; http://rsb.info.nih.gov/ij).

WT neutrophils = test: Cytokine/chemokine release by isolated neutrophils stimulated with LPS plus C5a; assay type: cell-based, mouse; settings: soluble Del-1 10 μg/ml, LPS (100 ng/ml) plus C5a (10 nM), 4 h
Experimental: FIG. 27. Effects of Del-1 deficiency or Del-1 on neutrophil function. (a) Migration of neutrophils isolated from wild-type (WT) or Edil3^−/− mice was tested in a transwell system. Chemokinesis (in the absence of a chemokine in the bottom well) or chemotaxis to CXCL2 (10 ng/ml) in the bottom well was assessed after 60 min. The migration of WT neutrophils in the absence of chemokine was set as the 100% control (dashed line) and the data were expressed relative to this value. (b) Neutrophils isolated from WT or Edil3^−/− mice were stimulated or not for 4 h with LPS (100 ng/ml) plus C5a (10 nM) and release of the indicated cytokines or chemokines in the culture supernatants was determined by ELISA. (c) WT neutrophils, in the presence or absence of soluble Del-1 (10 μg/ml), were stimulated as above and assayed for release of the indicated cytokines or chemokines. Data are means±SD (n=3 sets of neutrophils), from one of two independent sets of experiments yielding similar results.
Mouse neutrophils were obtained by harvesting the bone marrow (Ley (2007)). Briefly, bone marrow cells, obtained after flushing tibias and femurs with RPMI 1640 containing 10% FBS, were depleted of tissue debris and erythrocytes and were resuspended in 45% Percoll. […] Neutrophil purity was routinely >95%, as determined by FACS after staining for Ly6G, F4/80, and CD3.

LFA-1 = biological target: T1, LFA-1 (Mus musculus, UniProt P24063); settings: at equimolar amounts; cited from earlier work
T1 construct: host or cells: leukocytes (endogenous LFA-1)
T1 sequence (P24063 24-1162): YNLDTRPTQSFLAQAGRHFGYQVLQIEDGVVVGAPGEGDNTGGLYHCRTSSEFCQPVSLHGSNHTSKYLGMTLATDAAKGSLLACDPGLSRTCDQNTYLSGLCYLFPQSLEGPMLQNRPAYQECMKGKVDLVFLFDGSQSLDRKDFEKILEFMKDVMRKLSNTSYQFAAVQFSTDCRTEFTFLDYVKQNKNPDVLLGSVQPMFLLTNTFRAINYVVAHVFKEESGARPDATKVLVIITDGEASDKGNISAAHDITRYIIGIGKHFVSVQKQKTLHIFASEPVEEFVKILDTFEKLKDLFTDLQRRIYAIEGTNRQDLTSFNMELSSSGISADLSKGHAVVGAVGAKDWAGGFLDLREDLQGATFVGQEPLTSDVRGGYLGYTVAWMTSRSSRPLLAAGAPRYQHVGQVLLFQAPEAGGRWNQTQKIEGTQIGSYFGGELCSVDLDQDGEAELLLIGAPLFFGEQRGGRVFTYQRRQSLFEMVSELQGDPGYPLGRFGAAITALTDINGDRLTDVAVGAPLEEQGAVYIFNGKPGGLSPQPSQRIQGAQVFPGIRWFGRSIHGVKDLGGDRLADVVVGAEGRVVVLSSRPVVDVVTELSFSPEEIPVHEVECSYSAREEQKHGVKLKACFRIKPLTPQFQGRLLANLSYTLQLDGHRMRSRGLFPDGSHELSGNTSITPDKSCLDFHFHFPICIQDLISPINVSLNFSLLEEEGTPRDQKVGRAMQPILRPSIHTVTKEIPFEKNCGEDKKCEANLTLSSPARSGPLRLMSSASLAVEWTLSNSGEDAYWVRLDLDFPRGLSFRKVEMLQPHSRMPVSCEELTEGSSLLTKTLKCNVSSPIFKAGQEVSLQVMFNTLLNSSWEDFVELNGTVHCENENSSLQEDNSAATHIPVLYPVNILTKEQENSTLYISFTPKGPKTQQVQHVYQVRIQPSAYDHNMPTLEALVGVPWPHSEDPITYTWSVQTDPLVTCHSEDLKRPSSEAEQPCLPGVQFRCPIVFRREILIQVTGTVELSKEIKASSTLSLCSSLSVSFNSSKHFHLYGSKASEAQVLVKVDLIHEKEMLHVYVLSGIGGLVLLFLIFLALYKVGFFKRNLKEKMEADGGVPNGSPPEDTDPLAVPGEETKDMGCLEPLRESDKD
T1 sequence (P11835 24-771 partner): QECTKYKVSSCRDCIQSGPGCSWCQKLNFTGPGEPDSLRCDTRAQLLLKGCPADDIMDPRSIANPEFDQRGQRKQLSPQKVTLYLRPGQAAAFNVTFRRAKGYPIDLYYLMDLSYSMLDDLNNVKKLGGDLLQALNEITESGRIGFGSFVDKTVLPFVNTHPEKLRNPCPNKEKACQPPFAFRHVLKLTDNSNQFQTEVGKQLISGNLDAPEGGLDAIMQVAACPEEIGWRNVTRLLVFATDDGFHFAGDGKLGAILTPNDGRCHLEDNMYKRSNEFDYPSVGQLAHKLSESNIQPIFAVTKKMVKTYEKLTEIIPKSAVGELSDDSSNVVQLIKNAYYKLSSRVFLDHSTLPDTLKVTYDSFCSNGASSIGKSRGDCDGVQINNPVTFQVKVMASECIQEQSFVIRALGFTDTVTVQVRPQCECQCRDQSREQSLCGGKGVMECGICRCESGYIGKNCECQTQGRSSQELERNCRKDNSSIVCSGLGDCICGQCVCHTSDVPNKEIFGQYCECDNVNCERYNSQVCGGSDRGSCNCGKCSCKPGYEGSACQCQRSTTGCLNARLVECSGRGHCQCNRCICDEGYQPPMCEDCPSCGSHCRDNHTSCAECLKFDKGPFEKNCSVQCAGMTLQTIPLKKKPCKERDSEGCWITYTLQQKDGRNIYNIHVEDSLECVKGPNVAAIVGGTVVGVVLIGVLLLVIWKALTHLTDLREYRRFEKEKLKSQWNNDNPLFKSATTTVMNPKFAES

mouse neutrophils = settings: cited from earlier work
[3] = 18-month-old mice, local gingival microinjection 1 μg, compared to BSA control

B1: Del-1: soluble recombinant mouse Del-1 (provided by Valentis, Inc.); endothelial cell-expressed 52-kDa glycoprotein (protein)
chain: DICDPNPCENGGICLPGLADGSFSCECPDGFTDPNCSSVVEVASDEEEPTSAGPCTPNPCHNGGTCEISEAYRGDTFIGYVCKCPRGFNGIHCQHNINECEVEPCKNGGICTDLVANYSCECPGEFMGRNCQYKCSGPLGIEGGIISNQQITASSTHRALFGLQKWYPYYARLNKKGLINAWTAAENDRWPWIQINLQRKMRVTGVITQGAKRIGSPEYIKSYKIAYSNDGKTWAMYKVKGTNEDMVFRGNIDNNTPYANSFTPPIKAQYVRLYPQVCRRHCTLRMELLGCELSGCSEPLGMKSGHIQDYQITASSIFRTLNMDMFTWEPRKARLDKQGKVNAWTSGHNDQSQWLQVDLLVPTKVTGIITQGAKDFGHVQFVGSYKLAYSNDGEHWTVYQDEKQRKDKVFQGNFDNDTHRKNVIDPPIYARHIRILPWSWYGRITLRSELLGCTEEE
C3aR mRNA, Fold change vs. Del-1-untreated controls ([1]; CMC only): 0.49 Fold change
C5aR mRNA, Fold change vs. Del-1-untreated controls ([1]; CMC only): 0.50 Fold change
CCL2 mRNA, Fold change vs. Del-1-untreated controls ([1]; CMC only): 0.48 Fold change
CCL3 mRNA, Fold change vs. Del-1-untreated controls ([1]; CMC only): 1.02 Fold change
CCL20 mRNA, Fold change vs. Del-1-untreated controls ([1]; CMC only): 0.24 Fold change
CCR2 mRNA, Fold change vs. Del-1-untreated controls ([1]; CMC only): 0.26 Fold change
CCR6 mRNA, Fold change vs. Del-1-untreated controls ([1]; CMC only): 0.25 Fold change
CD40 mRNA, Fold change vs. Del-1-untreated controls ([1]; CMC only): 0.24 Fold change
CD80 mRNA, Fold change vs. Del-1-untreated controls ([1]; CMC only): 0.25 Fold change
CD86 mRNA, Fold change vs. Del-1-untreated controls ([1]; CMC only): 0.50 Fold change
CXCL10 mRNA, Fold change vs. Del-1-untreated controls ([1]; CMC only): 0.25 Fold change
CXCR4 mRNA, Fold change vs. Del-1-untreated controls ([1]; CMC only): 0.50 Fold change
G-CSF mRNA, Fold change vs. Del-1-untreated controls ([1]; CMC only): 0.12 Fold change
IL-1 mRNA, Fold change vs. Del-1-untreated controls ([1]; CMC only): 0.50 Fold change
IL-6 mRNA, Fold change vs. Del-1-untreated controls ([1]; CMC only): 0.25 Fold change
IL-17 mRNA, Fold change vs. Del-1-untreated controls ([1]; CMC only): 0.19 Fold change
RANKL mRNA, Fold change vs. Del-1-untreated controls ([1]; CMC only): 0.49 Fold change
TLR1 mRNA, Fold change vs. Del-1-untreated controls ([1]; CMC only): 0.24 Fold change
TLR2 mRNA, Fold change vs. Del-1-untreated controls ([1]; CMC only): 0.26 Fold change
TLR4 mRNA, Fold change vs. Del-1-untreated controls ([1]; CMC only): 0.25 Fold change
TLR5 mRNA, Fold change vs. Del-1-untreated controls ([1]; CMC only): 0.51 Fold change
TLR6 mRNA, Fold change vs. Del-1-untreated controls ([1]; CMC only): 0.27 Fold change
TLR9 mRNA, Fold change vs. Del-1-untreated controls ([1]; CMC only): 0.25 Fold change
TNF mRNA, Fold change vs. Del-1-untreated controls ([1]; CMC only): 0.50 Fold change
TREM-1 mRNA, Fold change vs. Del-1-untreated controls ([1]; CMC only): 0.49 Fold change
C3aR mRNA, Fold change vs. Del-1-untreated controls ([1]; Pg (P. gingivalis inoculated)): 0.49 Fold change
C5aR mRNA, Fold change vs. Del-1-untreated controls ([1]; Pg (P. gingivalis inoculated)): 0.25 Fold change
CCL2 mRNA, Fold change vs. Del-1-untreated controls ([1]; Pg (P. gingivalis inoculated)): 0.49 Fold change
CCL3 mRNA, Fold change vs. Del-1-untreated controls ([1]; Pg (P. gingivalis inoculated)): 0.51 Fold change
CCL20 mRNA, Fold change vs. Del-1-untreated controls ([1]; Pg (P. gingivalis inoculated)): 0.49 Fold change
CCR2 mRNA, Fold change vs. Del-1-untreated controls ([1]; Pg (P. gingivalis inoculated)): 0.12 Fold change
CCR6 mRNA, Fold change vs. Del-1-untreated controls ([1]; Pg (P. gingivalis inoculated)): 0.13 Fold change
CD40 mRNA, Fold change vs. Del-1-untreated controls ([1]; Pg (P. gingivalis inoculated)): 0.25 Fold change
CD80 mRNA, Fold change vs. Del-1-untreated controls ([1]; Pg (P. gingivalis inoculated)): 0.25 Fold change
CD86 mRNA, Fold change vs. Del-1-untreated controls ([1]; Pg (P. gingivalis inoculated)): 0.49 Fold change
CXCL10 mRNA, Fold change vs. Del-1-untreated controls ([1]; Pg (P. gingivalis inoculated)): 0.26 Fold change
CXCR4 mRNA, Fold change vs. Del-1-untreated controls ([1]; Pg (P. gingivalis inoculated)): 0.24 Fold change
G-CSF mRNA, Fold change vs. Del-1-untreated controls ([1]; Pg (P. gingivalis inoculated)): 0.25 Fold change
IL-1 mRNA, Fold change vs. Del-1-untreated controls ([1]; Pg (P. gingivalis inoculated)): 0.25 Fold change
IL-6 mRNA, Fold change vs. Del-1-untreated controls ([1]; Pg (P. gingivalis inoculated)): 0.24 Fold change
IL-17 mRNA, Fold change vs. Del-1-untreated controls ([1]; Pg (P. gingivalis inoculated)): 0.25 Fold change
RANKL mRNA, Fold change vs. Del-1-untreated controls ([1]; Pg (P. gingivalis inoculated)): 0.25 Fold change
TLR1 mRNA, Fold change vs. Del-1-untreated controls ([1]; Pg (P. gingivalis inoculated)): 0.24 Fold change
TLR2 mRNA, Fold change vs. Del-1-untreated controls ([1]; Pg (P. gingivalis inoculated)): 0.25 Fold change
TLR4 mRNA, Fold change vs. Del-1-untreated controls ([1]; Pg (P. gingivalis inoculated)): 0.12 Fold change
TLR5 mRNA, Fold change vs. Del-1-untreated controls ([1]; Pg (P. gingivalis inoculated)): 0.51 Fold change
TLR6 mRNA, Fold change vs. Del-1-untreated controls ([1]; Pg (P. gingivalis inoculated)): 0.26 Fold change
TLR9 mRNA, Fold change vs. Del-1-untreated controls ([1]; Pg (P. gingivalis inoculated)): 0.51 Fold change
TNF mRNA, Fold change vs. Del-1-untreated controls ([1]; Pg (P. gingivalis inoculated)): 0.51 Fold change
TREM-1 mRNA, Fold change vs. Del-1-untreated controls ([1]; Pg (P. gingivalis inoculated)): 0.24 Fold change
expression of IL-17 in the periodontium [2, 3]: diminished
expression of TNF in the periodontium [2, 3]: diminished
neutrophil infiltration in the periodontium (Ly6G staining) [2, 3]: reduced
inflammation induced by oral inoculation with Porphyromonas gingivalis ([2]; old mice, P. gingivalis inoculated): suppressed
constitutive (naturally occurring) inflammation ([2]; old mice, vehicle only): suppressed
cytokine and chemokine induction (TNF, CXCL1 release) by neutrophils (WT neutrophils): did not exert a direct effect; also recorded: No significant differences
competition with ICAM-1 for binding to LFA-1 on leukocytes (LFA-1): outcompetes ICAM-1
LFA-1-dependent adhesion of mouse neutrophils to mouse endothelial cells (mouse neutrophils): competitively inhibits

— patent publication US20140302027A1, “METHODS OF TREATING PERIODONTAL INFLAMMATION AND PERIODONTAL BONE LOSS” (United States of America as Represented by the Secretary, …, priority 2011, published 2014)
